Source: US20110104713A1, “PRODUCTS AND PROCESSES FOR MODULATING PEPTIDE-PEPTIDE BINDING DOMAIN INTERACTIONS” (priority 2002, published 2011)

Assays:
[1] = test system: centrosomal localization of GST-Plk-1 PBD in U2OS cells; assay: Centrosomal localization of GST-Plk-1 PBD in permeabilized U2OS cells with peptide competition; format: cell-based, human; conditions: 250 μM peptide; nocodazole-arrested, Streptolysin-O permeabilized U2OS cells
Experimental: U2OS cells were cultured in 8-well chamber slides and arrested at G2/M by treatment with nocodazole (50 ng/mL) for 14 hours. After rinsing with PBS, cells were incubated with 4 μM GST-Plk-1 PBD (residues 326-603) and Streptolysin-O (1 U/ml) in permeabilization buffer (25 mM HEPES (pH 7.9), 100 mM KCl, 3 mM NaCl, 200 mM sucrose, 20 mM NaF, 1 mM NaOVO4) for 20 minutes at 37° C. Cells were fixed in 3% paraformaldehyde/2% sucrose for 10 minutes at room temperature and extracted with a 0.5% Triton X-100 solution containing 20 mM Tris-HCl (pH 7.4), 50 mM NaCl, 300 mM sucrose, and 3 mM MgCl2 for 10 minutes at RT. […] Cells were examined using a Nikon Eclipse E600 fluorescence microscope equipped with a SPOT RTcamera and software (Diagnostic Instruments, Livingston, Scotland). Images were analyzed using NIH Image. […]
The normalized intensity of centrosome-specific Alexa Fluor 488 staining (N.I.AF488) or Texas Red staining (N.I.TR) above background was defined as ([Icentrosome−1cell]/Icell) where Icentrosome indicates the fluorescence intensity of either Alexa-Fluor 488 or Texas Red averaged over the centrosome and Icell indicates the overall fluorescence intensity averaged over the entire cell. The relative GST-PBD/γ-tubulin specific staining was then calculated as N.I.AF488/NITR.

[2] = biological target: T1, GST-Plk-1 PBD (residues 326-603) interaction with mitotic phosphoproteins (Homo sapiens, UniProt P53350); assay: Peptide competition of GST-Plk-1 PBD pull-down of MPM-2 mitotic phosphoproteins from HeLa lysates; format: binding; conditions: 320 μM peptide, 45 minutes at 4° C., nocodazole-arrested HeLa lysates
T1 construct: GST-Plk-1 (residues 326-603) was immobilized on glutathionine beads; made in house; host or cells: E. coli BL21
T1 sequence (P53350 326-603): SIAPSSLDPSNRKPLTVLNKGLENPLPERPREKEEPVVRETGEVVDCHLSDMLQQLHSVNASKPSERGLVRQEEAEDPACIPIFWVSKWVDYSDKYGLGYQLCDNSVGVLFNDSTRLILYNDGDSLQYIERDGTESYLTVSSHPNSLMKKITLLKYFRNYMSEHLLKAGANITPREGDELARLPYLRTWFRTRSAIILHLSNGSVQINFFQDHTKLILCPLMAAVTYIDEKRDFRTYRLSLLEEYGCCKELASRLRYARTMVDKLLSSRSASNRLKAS
Experimental: HeLa cells were arrested in interphase or G2/M by treatment with aphidicolin (5 μg/mL) or nocodazole (50 ng/mL), respectively, for 16 hours. Cells were lysed in 25 mM Tris/HCl (pH 7.5) containing 125 mM NaCl, 0.5% NP-40, 5 mM EDTA, 2 mM DTT, 4 μg/mL pepstatin, 4 μg/mL aprotinin, 4 μg/mL leupeptin, 1 mM Na3VO4, 50 mM NaF, and […] microcystin, and 150 μgs of lysate incubated with 10 μL of glutathione agarose beads containing 2-5 μg of GST-Plk-1 (residues 326-603), GST-Pin1, or GST for 30 minutes at 4° C. Beads were washed four times with lysis buffer. Precipitated proteins were eluted in sample buffer and detected by blotting with monoclonal MPM-2 (Upstate Biotechnology, Inc.) or polyclonal anti-Cdc25C (Santa Cruz Biotechnology, Santa Cruz, Calif.). For peptide competition experiments, GST-Plk-1 (residues 326-603) was immobilized on glutathionine beads and preincubated with 320 μM of PoloBoxtide-optimal, −8T, or −7V for 45 minutes at 4° C. For binding experiments involving mutant cdc25C, HeLa cells were transfected with wild-type and mutated versions of HA-tagged Cdc25C in pECE using Superfect (Qiagen, Valencia, Calif.). Nocodazole (50 ng/mL) was added seventeen hours after transfection and cells incubated for an additional 14 hours to arrest them in G2/M. Point mutations of Cdc25C were constructed using the QuickChange site-directed mutagenesis system (Stratagene) and verified by DNA sequencing.

effect of peptide pre-incubation on GST-Plk-1 PBD binding of MPM-2 epitopes [2]: not
effect of peptide pre-incubation on GST-Plk-1 PBD binding of MPM-2 epitopes ([2]; listed as 8T): had no effect
Substance: MAGPMQ-S-T-P-LNGAKK (MAGPMQSTPLNGAKK) [PoloBoxtide-8T]
effect of peptide on centrosomal localization of Plk-1 PBD [1]: unaffected
